Source: patent publication US20100273186A1, “SPLIT MUTANT HYDROLASE FUSION REPORTER AND USES THEREOF” (Promega Corporation, priority 2007, published 2010)
Changes are numbered by the printed parent chain. Numbers in names are those of the source.

Assays:
[1] = Binding of substrate to DhaA mutants
Source text: (§1) Carboxytetramethylrhodamine-C10H21NO2—Cl, carboxyfluorescein-C10H21NO2—Cl, and 5-carboxy-X-rhodamine-C10H21NO2—Cl bound to DhaA.H272F but not to DhaA.WT. Biotin-C10H21NO2—Cl bound to DhaA.H272F but not to DhaA.WT.
DhaA.H272 mutants, i.e. H272F/G/A/Q, bound to carboxytetramethylrhodamine-C10H21NO2—Cl.
A control mutant, DhaA.D106Q, single mutants DhaA.D106C, DhaA.D106Y, and DhaA.D106E, as well as double mutants DhaA.D106C:H272F, DhaA.D106E:H272F, DhaA.D106Q:H272F, and DhaA.D106Y:H272F were analyzed for binding to carboxytetramethylrhodamine-C10H21NO2—Cl. Carboxytetramethylrhodamine-C10H21NO2—Cl bound to DhaA.D106C, DhaA.D106C:H272F, DhaA.D106E, and DhaA.H272F. Thus, the bond formed between carboxytetramethylrhodamine-C10H21NO2—Cl and cysteine or glutamate at residue 106 in a mutant DhaA is stable relative to the bond formed between carboxytetramethylrhodamine-C10H21NO2—Cl and DhaA.WT. Other substitutions at position 106 alone or in combination with substitutions at other residues in DhaA may yield similar results. Further, certain substitutions at position 106 alone or in combination with substitutions at other residues in DhaA may result in a mutant DhaA that forms a bond with only certain substrates.

[2] = Binding of substrate to DhaA mutants; remark: listed apart in the source
Source text: as §1

[3] = Fluorescence polarization (FP) labeling assay; assay type: binding; settings: relative to DhaA.H272F H11YL
Source text: Fluorescence polarization (FP) is ideal for the study of small fluorescent ligands binding to proteins. It is unique among methods used to analyze molecular binding because it gives direct nearly instantaneous measure of a substrate bound/free ratio. Therefore, an FP assay was developed as an alternative approach to fluorimage gel analysis of the purified DhaA mutants. […] To place this rate in perspective, approximately 42 and 420-fold more A7 and parental, i.e., DhaA.H272F, protein, respectively, was required in the reaction to obtain measurable rates. Under the labeling conditions used, it is evident that the H11YL mutant was also considerably faster than A7 and parental, DhaA.H272F proteins with the fluorescein-based substrate. However, it appears that labeling of H11YL with carboxyfluorescein-C10H21NO2—Cl is markedly slower than labeling with the corresponding carboxytetramethylrhodamine-C10H21NO2—Cl substrate. Four-fold more H11YL protein was used in the carboxyfluorescein-C10H21NO2—Cl reaction (150 nM) versus the carboxytetramethylrhodamine-C10H21NO2—Cl reaction (35 nM), yet the rate observed appeared to be qualitatively slower than the observed carboxytetramethylrhodamine-C10H21NO2—Cl rate.
Based on the sensitivity and truly homogenous nature of this assay, FP was used to characterize the labeling properties of the purified DhaA mutants with the fluorescently coupled substrates. The data from these studies was then used to calculate a second order rate constant for each DhaA mutant-substrate pair. […] However, in each case labeling was slower with the carboxyfluorescein-C10H21NO2—Cl substrate. All of the first generation DhaA mutants characterized by FP had rates that ranged from 7 to 3555-fold faster than the corresponding parental protein. By far, the biggest impact on labeling rate by a single amino acid substitution occurred with the three replacements at the 273 position (Y273L, Y273M, and Y273C) in the DhaA.H272F background. Nevertheless, in each of the first generation DhaA.H272F mutants tested, labeling with the carboxyfluorescein-C10H21NO2—Cl substrate always occurred at a slower rate (1.6 to 46-fold). […] The H11YL rate constant of 2.2×10^6 M^−1 sec^−1 was nearly identical to the rate constant calculated for a carboxytetramethylrhodamine-coupled biotin/streptavidin interaction. This value is consistent with an on-rate of 5×10^6 M^−1 sec^1 determined for a biotin-streptavidin interaction using surface plasmon resonance analysis (Qureshi et al., 2001). Several of the second generation mutants also had improved rates with the carboxyfluorescein-C10H21NO2—Cl substrate, however, as noted previously, these rates were always slower than with the carboxytetramethylrhodamine-C10H21NO2—Cl substrate. […]

[4] = MagneGST-based assay; assay type: binding
Source text: An automated MagneGST™-based assay was used to screen the DhaA mutant protein libraries. […] For clones with at least 50% higher activity than the DhaA.H272F parent, the overall hit rate of the libraries examined varied from between 1-3%. Similar screening results were obtained for the DhaA.D106C libraries (data not shown). The hits identified by the initial primary screen were located in the master plates, consolidated, re-grown and reanalyzed using the MagneGST™ assay. Only those DhaA mutants with at least a 2-fold higher signal than the parental control upon reanalysis were chosen for sequence analysis.
The results of these analyses were consistent with protein labeling studies using SDS-PAGE fluorimage gel analysis. In an effort to determine if combinations of the best mutations identified in the DhaA.H272F background were additive, the three mutations at residue 273 were recombined with the DhaA.H272F A7 and DhaA.H272F H11 mutations. In order to distinguish these recombined protein mutants from the mutants identified in round one of screening (first generation), they are referred to as “second generation” DhaA mutants.

B1: DhaA.H272F: DhaA mutant, catalytic triad His272 replaced with Phe (protein, UniProt P0A3G2 1-293, looked up, variant H272F)
Haloalkane dehalogenase: MSEIGTGFPFDPHYVEVLGERMHYVDVGPRDGTPVLFLHGNPTSSYLWRNIIPHVAPSHRCIAPDLIGMGKSDKPDLDYFFDDHVRYLDAFIEALGLEEVVLVIHDWGSALGFHWAKRNPERVKGIACMEFIRPIPTWDEWPEFARETFQAFRTADVGRELIIDQNAFIEGALPKCVVRPLTEVEMDHYREPFLKPVDREPLWRFPNELPIAGEPANIVALVEAYMNWLHQSPVPKLLFWGTPGVLIPPAEAARLAESLPNCKTVDIGPGLFYLQEDNPDLIGSEIARWLPAL
binding to carboxytetramethylrhodamine-C10H21NO2—Cl [1]: bound | binding to 5-carboxy-X-rhodamine-C10H21NO2—Cl [2]: bound | binding to Biotin-C10H21NO2—Cl [2]: bound | binding to carboxyfluorescein-C10H21NO2—Cl [2]: bound | fold more protein required in the reaction to obtain measurable rates [3]: ~420 fold

B2: YC: DhaA.H272F based mutant with Y273C (protein, UniProt P0A3G2 1-293, looked up, variant H272F Y273C)
Haloalkane dehalogenase: B1 Haloalkane dehalogenase with Y273C
improvement over the parental clones [4]: significantly improved

B3: YM: DhaA.H272F based mutant with Y273M (protein, UniProt P0A3G2 1-293, looked up, variant H272F Y273M)
Haloalkane dehalogenase: B1 Haloalkane dehalogenase with Y273M
improvement over the parental clones [4]: significantly improved

B4: YL: DhaA.H272F based mutant with Y273L (protein, UniProt P0A3G2 1-293, looked up, variant H272F Y273L)
Haloalkane dehalogenase: B1 Haloalkane dehalogenase with Y273L
improvement over the parental clones [4]: significantly improved
